Source: the DeepSol protein solubility set

Test: soluble on expression in E. coli; label from the status in PepcDB or PDB records

| Sequence | soluble on expression in E. coli |
| --- | --- |
| MKPIDRFSYLKNNRVSQDTSSLVQCYLPIIGQEALSLYLYTISFWDNGRKEYLFSSILNHLNFGMDRLIKSLKILSAFNLLTLYQKGDVYQLALHAPLSSQDFLGHPVYRRLLEKKIGDVAVEDLKVESADGEEIPVSLNQVFPELAELGSQEDLGLKKKVANDFDLEHFRQLMARDGLRFADEQSDVLNLFAIAEEKKWTWFETYQLAKSTAVSQVISTKRMREKIAQKPVSSDFSLKEATIIKEAKSKTALQFLAEIKQTRKGTITQTERELLQQMAGLGLLDEVINIILLLTFNKVDSANINEKYAMKVANDYAYQKIHSAEEAVLRIRDRGQKAKTQKQNQTAPEKTNVPKWSNPEYKNETSEETRLELERKKQELLARLEKG | soluble |
| MKPIQLPLSVRLRDDATFANYYPGANAAALGYVERLCEAEAGWAESLIYLWGHDGVGRSHLLQAACLRFEQFEERTIYLPMADLVQYGPEIFDDLEQCELVCIDDLDVLVGKREWEEGLFHLFNRLRDTGRRLLLAASKSPRELQVKLPDLKSRLTMALIFQLHGLSDEDKLRALQLRASRRGLHLTDEVGRFILNRGSRSMNSLFDLLEQLDRASLQAQRKLTIPFLKETLGWLEHHHHHH | soluble |
| MKPPSSIQTSEFDSSDEEPIEDEQTPIHISWLSLSRVNCSQFLGLCALPGCKFKDVRRNVQKDTEELKSCGIQDIFVFCTRGELSKYRVPNLLDLYQQCGIITHHHPIADGGTPDIASCCEIMEELTTCLKNYRKTLIHSYGGLGRSCLVAACLLLYLSDTISPEQAIDSLRDLRGSGAIQTIKQYNYLHEFRDKLAAHLSSRDSQSRSVSR | soluble |
| MKPTNKAQDDDAVFALSTEVNHKLDLHQSSAEALRLAGVYTRQSCVLDLYHGYRSDDEDTEPDEEDGRLQTVREYHENGMLKLMRTFVRRLRRDATDPTAESSYYDRVVEEKHYDPSGICRVDMHFALGQPYLYRKHYYPNNRLKSEKVFFVEDEETMRARKVGHWRTYYENGNIQSEIIYNKDGVRCGFCKRYAIDGAIEWVKDYTREQEERLQAFNAKRGNLDLTVTDAARVLGLEGDWCSHVVNRTFRSKCAPLHPDWRRTAGDKAGETWEEEQRTEAFIRLSRAREVLLKFLETHPRECSCERGGA | not soluble |
| MKPTTISLLQKYKQEKKRFATITAYDYSFAKLFADEGLNVMLVGDSLGMTVQGHDSTLPVTVADIAYHTAAVRRGAPNCLLLADLPFMAYATPEQAFENAATVMRAGANMVKIEGGEWLVETVQMLTERAVPVCGHLGLTPQSVNIFGGYKVQGRGDEAGDQLLSDALALEAAGAQLLVLECVPVELAKRITEALAIPVIGIGAGNVTDGQILVMHDAFGITGGHIPKFAKNFLAETGDIRAAVRQYMAEVESGVYPGEEHSFH | soluble |
| MKQAIVYWKTLKAGILTESDEGYSFAYDKDYLTMPEAQGISLTMPLREEPFQSNMLHPFFDGLIPEGWLLDIAQKNWKIDSRDRMALLLACCRDCIGAVSIEPLNTTEDDE | not soluble |
| MKQGTVKWFNAEKGFGFIEVEGENDVFVHFSAINQDGYKSLEEGQAVEFEVVEGDRGPQAANVVKL | not soluble |
| MKQKIWYTYDDIHRVIKALAEKIRNADIKYDAMIAIGGGGFIPARMLRCFLEIPIYAVTTAYYDSDNEGQVTEEVKKVQWLDPVPEALRGKNVLVVDEVDDSRVTMEFCLKELLKEDFGTIGVAVLHEKIKAKAGKIPEGIPYFSGITVEDWWINYPWDALDIDEHNRLAEAGRG | not soluble |
| MKQLTILGSTGSIGNSTLSVVRANPELFKVTALVAGRNVREMAQQCLEFSPRYAAMSDEHSAKSLRLLLAEQGSDTEVYSGETAACELAALDDVDQVMAAIVGIAGLPSTLAAIRAGKQVLLANKESLITCGKLFMDEVKRSRAQLLPIDSEHNAIFQSLPERIQRQLGYSSLNENGVSRIILTGSGGPFRETPLSQFSDVTPDQACAHPNWSMGRKISVDSATMMNKGLEYIEARWLFNASAEQIEVVLHPQSVIHSMVRYHDGSILAQMGTPDMRTPIAHAMAYPMRVSSGVAPLDFCKVGALTFTTPDYQRYPCLKLAIDACNAGQAATTALNAANEISVMAFLDSKIRFTDIEVINRTVVEGLLLSEPTSVEEVLVIDRKARDVAAQVIAKLNN | not soluble |
| MKQLYATIRFNGYEEAADKGDLAVHKLVAAALDDAEASLKDLFAQQIFGDGTGNSGKDLTGLKAYVDDGTAVAVYGGIDRATNPWWKANVKKSANNKVLDIKQMREVFAKCSRGGMENKPDFIVTDLNTWLQYAELVDGKTTIQQPLGKVAEEFANLGFAQLSFMGIPVVYDEYCPAYTMYFINSNTFQLYGKPGRMFTTSEIVKIPDEDSKVGQIFFAGEFVGTEPRANGRLDLTVS | not soluble |
| MKQQEVRQRAFAMPLTSPAFPPGPYRFVNREYMIITYRTDPAAIEAVLPEPLQMAEPVVRYEFIRMPDSTGFGDYSESGQVIPVTFRGERGSYTLAMFLDDQPPLAGGRELWGFPKKAGKPRLEVHQDTLVGSLDFGPVRIATGTMGYKYEALDRSALLASLAEPNFLLKIIPHVDGSPRICELVRYHTTDVAIKGAWSAPGSLELHPHALAPVAALPVLEVLSARHFVCDLTLDLGTVVFDYLRQ | soluble |
| MKRGIIIIEDKKVSVTGNEVWMTATEIAGLFRAGVPAVNAAIKAVRKSDVLNDYEVCRYMRLENGLHADVYALEIIIPIAFRLNTYCTHVFRRWLVEKALAKEKQQAYVMLIHKANGYC | not soluble |
| MKRIGILTSGGDAPGMNAAVRAVTRVAIANGLEVFGIRYGFAGLVAGDIFPLESEDVAHLINVSGTFLYSARYPEFAEEEGQLAGIEQLKKHGIDAVVVIGGDGSYHGALQLTRHGFNSIGLPGTIDNDIPYTDATIGYDTACMTAMDAIDKIRDTASSHHRVFIVNVMGRNCGDIAMRVGVACGADAIVIPERPYDVEEIANRLKQAQESGKDHGLVVVAEGVMTADQFMAELKKYGDFDVRANVLGHMQRGGTPTVSDRVLASKLGSEAVHLLLEGKGGLAVGIENGKVTSHDILDLFDESHRGDYDLLKLNADLSR | soluble |
| MKRIPIKELIVEHPGKVLILDGGQGTELENRGININSPVWSAAPFTSESFWEPSSQERKVVEEMYRDFMIAGANILMTITYQANFQSISENTSIKTLAAYKRFLDKIVSFTREFIGEERYLIGSIGPWAAHVSCEYTGDYGPHPENIDYYGFFKPQLENFNQNRDIDLIGFETIPNFHELKAILSWDEDIISKPFYIGLSVDDNSLLRDGTTLEEISVHIKGLGNKINKNLLLMGVNCVSFNQSALILKMLHEHLPGMPLLVYPNSGEIYNPKEKTWHRPTNKLDDWETTVKKFVDNGARIIGGCCRTSPKDIAEIASAVDKYS | soluble |
| MKRKFLIASHGNLAKGFQSSLDILADKGKELAVINAYVTPEDYTPIIQTFLQSLGAEEQAIILTDLYGGSVNQKIVQEVMTTKPDNVFIISNANLAIALSLIFLKEGEKLTKEDIQAAIAEAQIQFVELNPSNEEENFF | not soluble |
| MKRLLLSAAILSSMALFNVNAQELKTSADMKGSFKKNVVLEVFTAEWCGYCPGGKERIAKAIEMLDDEYKERVFQTFVHYNDGISKKWPRVGQLFIALDQTLGIPGFPTFSVCRMEKKGENLSIGAPIAIKNKIMKGFGDGTAPAEVNLKLTKGATPEDVCTATFTGKVDADLIGKPLMLTAYVLKNNMKPINPQNGAGDGYLHQHTVLMILSTDVKGDALNIAADGSFTIKKEFKLDGFEIKDTDVLAFVHHPMSNAENHSIINAGQESLDKAEPTATEQIVATPSVKAYVQNGKIVVEEEYSKMEVFNATGQLVKNESLVPGVYVVRITANGVMYFLKVLVP | not soluble |
| MKRLSPEVFKVPIDRIRNGYYSDIYFINYVKVLKRDSRHPRVYYQFFPRKDAVICGIDEALAILKFCTGYYKDEEKARELFEEILKLDKEMQAASVEMDVQKILELTQKKWDLRLKLNDLWVDKWDEIEVHALYDGEEAKEGEPIMTIEGDPTYFGYLETVLLGVIARATSTATAVKKVVKAARGKPVLFFSARFDHYWVQATDGYAALKAGAFGVSTDANADYWGVKSMGTMPHALIACYDGKTEDAAIAFDRHMEEDVNRIVLVDWDNDVIGTTFRVIEKFYEYVMKKPFKLGVTDPSPIIGPGKNKIWGVRFDTSGNLRDKSVVPKDESSFGVCPELVWRARQEFDKVGLRDLKIVVSGGFDEKKIDLFERLGVPADAYGVGSRLLREKVDITADIVEVNGRHCAKVGRYKIENPRLKKVGKRYWEEE | soluble |
